Test results as given in the nanobody polyreactivity screen of Harvey et al. (2022).

Assay: yeast display, Sf9 membrane polyspecificity reagent, FACS + sequencing; frameworks hold sequencing errors
Outline: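 Sorting gates, low and high (top ~1%), were placed on anti-HA fluorescence to track expression and on streptavidin fluorescence to track reagent binding. A clone's polyreactivity label is taken from the gate it came out of. The reagent was 10% biotinylated, detergent-solubilized Sf9 membrane, applied for 1 hour at 4 °C to galactose-induced yeast display cells.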

Row | Sequence | polyreactivity (PSR sort gate)
1 | QVQLVESGGGLVQAGGSLRLSCAASGSTFQKYVMGWYRQAPGKERELVAAISINGVRTYYADSVKGRFTISRDYAKNTVYLQMNSLKPEDTAVFFCNNDTLIRRGSGRGYWGQGTQVNVSS | high polyreactivity
2 | QVQLVESCGGLVQAGGSLRLSCAASGLIFIYNAMGWYRQAPGKERELVAAISRSGGRTYYADSVKGLFTISRDNAKNTVYVQMNSLKPEDTEVYYCATDASTYAYYGGDYWGQGTQVTVSS | low polyreactivity
3 | QVQLVESGGGLVQAGGSLRLSCAASGSIFAYNAMGWYRQAPGKEREFVAVITRSDDSTYADSVKGRFTISRDNAKNTVYLQMNSLKPEDTAVYYCAAEYYETPYASLGYDYWGQGTQVTVSS | low polyreactivity
4 | QVQLVESGGGLVQAGGSLRLSCAASGRIFYYNTMGWYRQAPGKERELVARITQRGGRTYYADSVKGRFTISRDYAKNTVYLQMNSLKPVDTAVYYFNAKVRGTNTAGVDYWGQGTQVTVSS | high polyreactivity
5 | QVQLQESGGGLVQAGGSLRLICAASGTISTDSYMGWYRQAPGKERKFVATIGYGGITYYADSVNGRSTISRDSAKNTVYLQMNSLKPDDTAVYYCEVNSYYPYHYWYWGRGTQVTVSS | high polyreactivity
6 | QVQLVESGGGLVQAGGSLRLSCAASGIIFGNNAMGWYRQAPGKERELVAAIRWSTGTTYYADSVKGRFTISRDNAKNTVYLQMNSLKPEDTAVYYCAARLRREYGYWGQGTQVTVSS | high polyreactivity
7 | QVQLVESGGGLVQAGGSLRLSCAASGSTFRDYAMGWYRQAPGKERELVASITSGSSTYADSVKGRFTISRDNAKNTVYLQMNCLKPEDTAVYYCNADGITSLPVPALDYWGQGTQVTVSS | low polyreactivity
8 | QVQLVESGGGLVQAGGSLRLSCAASGRNFIVNAMGWYRQAHGKEREFVAAITSRGGITYYADSVKGRFTISRDNAKNTVYLQMNSLKPEDTAVYYCAAGYITWGSGNWVVTPYDYWGQGTQVTVSS | high polyreactivity
9 | QVQLVESGGGLVQAGGSLRLSCAASGITLYYYTMGWYRQAPGKERELVAAISGSGGSTYYADSVKGRFTISRDNAKNTVYLQMNSLKPEDTAVYYCNTARSLKNHFYKYDYWGQGTQVTVSS | high polyreactivity
10 | QVQLEESGGGLVQAGGSLRLSSAASGIIFGTNAMGWYRQAPGKERELVAGITSSGDSTYYADSVKGRFTISRDNPKNTVYLQMNSLKPEDTAVYYCARDIRTREFDSWGQGTQVTVSS | low polyreactivity
11 | QVQLVESGGGLVQAGGSLRLSCAASGSTFGYYAMGWYRQAPGKERELVAAISVRGGRTYYADSVKGRFTISRDNAKNTVYVQMKSLKPEDTAVYYCATLLPGLGRYGYDYWGQGTQVTVSS | high polyreactivity
12 | QVQLVESGGGLVQAGGSLRLSCAASGRTFSYNAMGWYRQAPGKEWELVAAISWGGGSTYYADSVKGRFTISRDNAKNTVYLQMNSLKPEDTAVYYCAAKRLTSRQHDYWGQGTQVTVSS | high polyreactivity
13 | QVQLVESGGGLVQAGGSLRLSCAASGRIFVYYAMGWYRQAPGKERELVASISYSGASTYYADSVKGRFTISRDNAKNTVYLQMYSLKPEDTAVYYCNTDGDDFFHVIYDYWGQGTQVTVSS | low polyreactivity
14 | QVQLVESGVGLVQAGGSLRLSCAASGITFPGYAMGWYRQAPGKERELVAVIRKSGTSTYYADSVKGRFTISRDNAKNTVYLQMNSLKPEDTAVYYCAAGGPSTLDDYWGQGTQVTVSS | low polyreactivity
15 | QVQLVESGGGLVQAGGSLRLSCAATGTFRRYAMGWYRQAPGKERELVAAITRNGGSTYYADSVKGRFTISRDNAKNTVYLQMNSLKPEDTAVYYCAAGLFWGGFRQWTDHHFDCDYYWGQGTQVTVSS | high polyreactivity
16 | QVQLVESGGGLVQAGGSLRLSCAASGRIFGVYAMGWYRQAPGKERELVAAITRRGGTTYYADSVKGRFTISRDNAKNTVYLQMNSLKPEDTAVYYCAAVFVTQSFIYDYYYWGQGTQVTVSS | high polyreactivity
17 | QVQLVESGGGLVQAGGSLRLSCAASGRTFNSYAMGWYRQAPGKERELVAAISRRGGSTYYADSVKGRFTISRDNAKNTVYLQMNSLKPEDTAVYYCASTIVQYISRMDYWGQGTQVTVSS | high polyreactivity
18 | QVQLVESGGGLVQAGGSLRLSCAASGITFAWYAMGWYRQAPGKERELVAAISRSGGSTYYADSVKGRFTISRDNAKNTVYLQMNSLKPEDTAVYYCADRASPRFNYWGQGTQVTVSS | high polyreactivity
19 | QVQLVESGGGLVQAGGSLRLSCAASGLIFYRYAMGWYRQAPGKERELVADISWSGGTTYYADSVKGRFTISRDNAKNTVYLQMNSLKPEDTAVYYCAARSVPSPERGFYYWGQGTQVTVSS | high polyreactivity
